Reference: patent US20210347873A1 (SHANGHAI PHARMAEXPLORER, published 2021)

What was measured:
[1] = target: His-tagged extracellular domain of human BLyS protein (hBLyS-ECD), Ala134-Leu285 (human, UniProt Q9Y275 134-285); assay: cell-based or functional assay
[2] = target: T1, extracellular domain of human BLyS protein (hBLyS-ECD), His-tagged, Ala134-Leu285 (human, UniProt Q9Y275 134-285); assay: SPR (Biacore), antibody captured by anti-human Fc, hBLyS-ECD as analyte
T1 construct: Expressed in HEK293 cells and purified on a Ni column; also called immunogen

human APRIL protein [3] = target: T2, human APRIL protein (human, UniProt O75888 105-250, limits assumed); assay: ELISA, coated APRIL; antibody 13.3 nM
T2 construct: Bought protein; also called recombinant APRIL protein
T2 sequence (looked up): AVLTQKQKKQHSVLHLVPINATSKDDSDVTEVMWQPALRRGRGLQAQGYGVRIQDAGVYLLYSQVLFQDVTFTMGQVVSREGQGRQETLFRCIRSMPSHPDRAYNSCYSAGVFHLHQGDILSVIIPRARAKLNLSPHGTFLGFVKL
Experimental: (§1) To test whether the BLyS antibody cross-reacted with human APRIL protein, APRIL protein (purchased from R & D Systems) was first diluted to a final concentration of 1.0 μg/mL with PBS, and then 50 μL of which per well was aliquoted into a 96-well ELISA plate, and the plate was subsequently sealed with plastic film and incubated at 4° C. overnight. On the next day the plate was rinsed four times with the plate washing buffer [PBS buffer containing 0.0500 (v/v) Tween20] and a blocking solution [PBS buffer containing 0.05 (v/v) Tween20 and 1 (w/w) BSA] was added, then the protein was blocked at 37° C. for 2 hours. The blocking solution was removed and 100 μL per well of the lead antibodies prepared in Embodiment 1 and 2 were added in. After incubation for 1 hour at 37° C., the plate was rinsed four times with the plate washing buffer [PBS buffer containing 0.05 (v/v) Tween20]. HRP-labeled (horseradish peroxidase) secondary antibody (purchased from Sigma) was added in and incubated at 37° C. for 1 hour. The plate was then rinsed four times with the plate washing buffer [PBS buffer containing 0.050 (v/v) Tween20]. 100 μL of TMB substrate was aliquoted into each well and after incubation at room temperature for 5 minutes, 100 μL of stop solution (1.0 N HCl) was aliquoted into each well. A₄₅₀ₙₘ values were read via an ELISA plate reader (SpectraMax M5e purchased from Molecular Devices) and the results were shown in FIGS. 6A-6B and Table 11. […] As used herein, the IgG control is human IgG and the data in the table is GD number at 450 nm.

human APRIL protein [4] = target: T2, human APRIL protein; assay: ELISA, coated APRIL; antibody 2.67 nM
Experimental: as §1

human APRIL protein [5] = target: T2, human APRIL protein; assay: ELISA, coated APRIL; antibody 66.7 nM
Experimental: as §1

human APRIL protein [6] = target: T2, human APRIL protein; assay: ELISA, coated APRIL; antibody 0.107 nM
Experimental: as §1

human APRIL protein [7] = target: T2, human APRIL protein; assay: ELISA, coated APRIL; antibody 0.534 nM
Experimental: as §1

human APRIL protein [8] = target: T2, human APRIL protein; assay: ELISA, coated APRIL; antibody 0.0213 nM
Experimental: as §1

human APRIL protein [9] = target: T2, human APRIL protein; assay: ELISA, coated APRIL; antibody 0.00427 nM
Experimental: as §1

human APRIL protein [10] = target: T2, human APRIL protein; assay: ELISA, coated APRIL; antibody 0 nM (blank)
Experimental: as §1

Row | Binder | Kd [2] [nM] | koff [2] [s⁻¹] | kon [2] [M⁻¹ s⁻¹] | mouse B lymphocyte proliferation stimulated by hBLyS-ECD (viable cell signal) at 0 nM antibody [1] | mouse B lymphocyte proliferation stimulated by hBLyS-ECD (viable cell signal) at 0.000256 nM antibody [1] | mouse B lymphocyte proliferation stimulated by hBLyS-ECD (viable cell signal) at 0.00128 nM antibody [1] | mouse B lymphocyte proliferation stimulated by hBLyS-ECD (viable cell signal) at 0.0064 nM antibody [1] | mouse B lymphocyte proliferation stimulated by hBLyS-ECD (viable cell signal) at 0.032 nM antibody [1] | mouse B lymphocyte proliferation stimulated by hBLyS-ECD (viable cell signal) at 0.16 nM antibody [1] | mouse B lymphocyte proliferation stimulated by hBLyS-ECD (viable cell signal) at 0.8 nM antibody [1] | mouse B lymphocyte proliferation stimulated by hBLyS-ECD (viable cell signal) at 4 nM antibody [1] | mouse B lymphocyte proliferation stimulated by hBLyS-ECD (viable cell signal) at 20 nM antibody [1] | mouse B lymphocyte proliferation stimulated by hBLyS-ECD (viable cell signal) at 100 nM antibody [1] | further results
1 | humanized BLyS antibody h8E7D9C7F5-1 (antibody, human IgG1, V domains shown) VH: EVQLVQSGAEVKKPGASVKVSCKASGYTFTSYGISWVRQAPGQGLEWMGEIYPRSGNTYYNEKFKGRVTMTTDTSTSTAYMELRSLRSDDTAVYYCARSGPITTLVATDYGMDYWGQGTTVTVSS VL: DIVMTQSPDSLAVSLGERATINCRASKSVSTSSYSYMHWYQQKPGQPPKLLIKFASNLESGVPDRFSGSGSGTDFTLTISSLQAEDVAVYYCQHSREFPYTFGGGTKVEIK | – | – | – | 3480 OD450 nm (as headed) | 3000 OD450 nm (as headed) | 3120 OD450 nm (as headed) | 3200 OD450 nm (as headed) | 2970 OD450 nm (as headed) | 2730 OD450 nm (as headed) | 951 OD450 nm (as headed) | 209 OD450 nm (as headed) | 152 OD450 nm (as headed) | 131 OD450 nm (as headed) | –
2 | humanized BLyS antibody h97A3C2H4-9 (antibody, human IgG1, V domains shown) VH: EVQLVESGGGLVQPGGSLRLSCAASGFTFSTYTMSWVRQAPGKRLEWVAYISYGGGSTSYPDTVKGRFTISRDNAKNSLYLQMNSLRAEDTAVYYCTRHVTVVENSMDYWGQGTTVTVSS VL: DILLTQSPDFQSVTPKEKVTITCRASQSIGTSIHWYQQKTDQSPKLLIKYVSESFSGTPSRFSGSGSGTDFTLTINSLEAEDAATYYCQQTHSWPWTFGGGTKVEIK | – | – | – | 3590 OD450 nm (as headed) | 3080 OD450 nm (as headed) | 3540 OD450 nm (as headed) | 2970 OD450 nm (as headed) | 2960 OD450 nm (as headed) | 2770 OD450 nm (as headed) | 1110 OD450 nm (as headed) | 217 OD450 nm (as headed) | 137 OD450 nm (as headed) | 127 OD450 nm (as headed) | –
3 | mouse-human chimeric BLyS antibody c97A3C2H4 (antibody, human IgG1, V domains shown) VH: EVKLVESGGGLVQPGGSLKLSCAASGFTFSTYTMSWVRQTPEKRLEWVAYISYGGGSTSYPDTVKGRFTISRDNAKNTLYLQMSSLKSEDTAIYYCTRHVTVVENSMDYWGQGTSVTVSS VL: DILLTQSPDILSVSPGERVSFSCRASQSIGTSIHWYQQRTNGSPRLLIKYVSESFSGTPSRFSGSGSGTAFTLTINSVESEDIADYYCQQTHSWPWTFGGGTKLEIK | – | – | – | 3450 OD450 nm (as headed) | 3110 OD450 nm (as headed) | 2900 OD450 nm (as headed) | 3050 OD450 nm (as headed) | 2960 OD450 nm (as headed) | 2890 OD450 nm (as headed) | 429 OD450 nm (as headed) | 223 OD450 nm (as headed) | 159 OD450 nm (as headed) | 169 OD450 nm (as headed) | –
4 | 20D1B6E9E5 (antibody, V domains shown) VH: EVQLQQSVAELVRPGASVKLSCTASDFNIKNTYIHWVKQRPEQGLEWIGRIDPVNGNTKYAPKFQDKATIIVDTYSNTAYLQLSSLASEDTAVYYCARWPITTIVATDWYFDVWGTGTTVTVSS VL: DVLMTQTQLALPVRLGEQASISCRSSQSIVNSNGNTYLEWYLQKPGQSPKLLIYKVSNRFSGVPDRFSGSGSGTDFTLKISRVEAEDLGVYYCFQGSHVPWTFGGGTKLEIK | – | – | – | – | – | – | – | – | – | – | – | – | – | OD450 nm (human APRIL protein [3]): 0.257; OD450 nm (human APRIL protein [4]): 0.0775; OD450 nm (human APRIL protein [5]): 0.942; OD450 nm (human APRIL protein [6]): 0.0543; OD450 nm (human APRIL protein [7]): 0.0611; OD450 nm (human APRIL protein [8]): 0.0546; OD450 nm (human APRIL protein [9]): 0.0535; OD450 nm (human APRIL protein [10]): 0.055
5 | c20D1B6E9E5 (antibody, V domains shown) VH: EVQLQQSVAELVRPGASVKLSCTASDFNIKNTYIHWVKQRPEQGLEWIGRIDPVNGNTKYAPKFQDKATIIVDTYSNTAYLQLSSLASEDTAVYYCARWPITTIVATDWYFDVWGTGTTVTVSS VL: DVLMTQTQLALPVRLGEQASISCRSSQSIVNSNGNTYLEWYLQKPGQSPKLLIYKVSNRFSGVPDRFSGSGSGTDFTLKISRVEAEDLGVYYCFQGSHVPWTFGGGTKLEIK | 0.642 | 0.000211 | 329000 | – | – | – | – | – | – | – | – | – | – | –
6 | 8E7D9C7F5 (antibody, V domains shown) VH: QVQLQQSGVELARPGASVKLSCKASGYTFTSYGISWVKQRTGQALEWIGEIYPRSGNTYYNEKFKGKATLTADKSSSTAYMELRSLTSEDSAVYFCARSGPITTLVATDYGMDYWGQGTSVTVSS VL: DIVLTQSPASLAVSLGQRATISCRASKSVSTSSYSYMHWYQQKPGQPPKLLIKFASNLESGVPARFSGSGSGTDFTLNIHPVEEEDAATYYCQHSREFPYTFGGGTKLEIK | – | – | – | – | – | – | – | – | – | – | – | – | – | OD450 nm (human APRIL protein [3]): 0.116; OD450 nm (human APRIL protein [4]): 0.0703; OD450 nm (human APRIL protein [5]): 0.464; OD450 nm (human APRIL protein [6]): 0.0558; OD450 nm (human APRIL protein [7]): 0.0599; OD450 nm (human APRIL protein [8]): 0.0565; OD450 nm (human APRIL protein [9]): 0.0571; OD450 nm (human APRIL protein [10]): 0.0551
7 | mouse-human chimeric BLyS antibody c8E7D9C7F5 (antibody, human IgG1, V domains shown) VH: QVQLQQSGVELARPGASVKLSCKASGYTFTSYGISWVKQRTGQALEWIGEIYPRSGNTYYNEKFKGKATLTADKSSSTAYMELRSLTSEDSAVYFCARSGPITTLVATDYGMDYWGQGTSVTVSS VL: DIVLTQSPASLAVSLGQRATISCRASKSVSTSSYSYMHWYQQKPGQPPKLLIKFASNLESGVPARFSGSGSGTDFTLNIHPVEEEDAATYYCQHSREFPYTFGGGTKLEIK | – | – | – | 3640 OD450 nm (as headed) | 3310 OD450 nm (as headed) | 3360 OD450 nm (as headed) | 3020 OD450 nm (as headed) | 2950 OD450 nm (as headed) | 3200 OD450 nm (as headed) | 408 OD450 nm (as headed) | 187 OD450 nm (as headed) | 187 OD450 nm (as headed) | 116 OD450 nm (as headed) | –

Second part, led by results:

Row | Kd [2] [nM] | koff [2] [s⁻¹] | kon [2] [M⁻¹ s⁻¹] | Binder | mouse B lymphocyte proliferation stimulated by hBLyS-ECD (viable cell signal) at 0 nM antibody [1] | mouse B lymphocyte proliferation stimulated by hBLyS-ECD (viable cell signal) at 0.000256 nM antibody [1] | mouse B lymphocyte proliferation stimulated by hBLyS-ECD (viable cell signal) at 0.00128 nM antibody [1] | mouse B lymphocyte proliferation stimulated by hBLyS-ECD (viable cell signal) at 0.0064 nM antibody [1] | mouse B lymphocyte proliferation stimulated by hBLyS-ECD (viable cell signal) at 0.032 nM antibody [1] | mouse B lymphocyte proliferation stimulated by hBLyS-ECD (viable cell signal) at 0.16 nM antibody [1] | mouse B lymphocyte proliferation stimulated by hBLyS-ECD (viable cell signal) at 0.8 nM antibody [1] | mouse B lymphocyte proliferation stimulated by hBLyS-ECD (viable cell signal) at 4 nM antibody [1] | mouse B lymphocyte proliferation stimulated by hBLyS-ECD (viable cell signal) at 20 nM antibody [1] | mouse B lymphocyte proliferation stimulated by hBLyS-ECD (viable cell signal) at 100 nM antibody [1] | further results
8 | 0.147 | 4.89e-05 | 334000 | c97E7B3F2 (antibody, V domains shown) VH: EVQLQQSGPELVKSGASVKISCKASGYTFTDHKMHWVKQSHGKSLEWIGYISPYNGGTGYNQKFKSKVTLTVDISSSTAYMELRSLTSEDSAVYYCARWGFYDVMDSWGQGTSVTVSS VL: DVLLTQTPLSLPVSLGDQASISCRSSQTIVHIIGDTYLEWYLQKPGQSPKLLIYKVSNRFSGVPDRFSGSGAGTDFTLKISRVEAEDLGVYYCFQGSHVPRTFGGGTKLEIK | – | – | – | – | – | – | – | – | – | – | –
9 | 0.0857 | 1.82e-05 | 213000 | c89A2G5E7 (antibody, V domains shown) VH: QVQLKESGPGLVAPSQSLSITCTVSGLSLNSHDISWIRQPPGKGLEWLGVIWSGGGTKYNSAFMSRLSISKDNSKSQVFLKMNSLHTDDTAIYYCVRTPSMITYSAMDYWGQGTSVTVSS VL: EIVLTQSPALMAASPGEKVTITCSVSSSISSRNLHWYQQKSQTSPKAWIHATSNLASGVPVRFSGSGSGTSYSLTISSMEAEDAATYYCQQWSSYPLTFGSGTKLEIK | – | – | – | – | – | – | – | – | – | – | –
